Measured values reported in publication PMC2807882, “Conservation of DNA-binding specificity and oligomerisation properties within the p53 family”.

Legend:
Assay in all cases: fluorescence anisotropy, direct; 25 mM NaPi, 225 mM NaCl, 10% v/v glycerol, 5 mM DTT, 0.2 mg/mL BSA, 22°C; 20 nM labelled DNA; pH not stated for the binding assay
Settings in all cases: protein: recombinant; tags: N-terminal 6xHis-lipoyl-TEV tag, cleaved; chain copies: 4; label: 5'-Alexa488
[1] = target: T1, Drp53 (Danio rerio, UniProt P79734 1-373)
T1 sequence: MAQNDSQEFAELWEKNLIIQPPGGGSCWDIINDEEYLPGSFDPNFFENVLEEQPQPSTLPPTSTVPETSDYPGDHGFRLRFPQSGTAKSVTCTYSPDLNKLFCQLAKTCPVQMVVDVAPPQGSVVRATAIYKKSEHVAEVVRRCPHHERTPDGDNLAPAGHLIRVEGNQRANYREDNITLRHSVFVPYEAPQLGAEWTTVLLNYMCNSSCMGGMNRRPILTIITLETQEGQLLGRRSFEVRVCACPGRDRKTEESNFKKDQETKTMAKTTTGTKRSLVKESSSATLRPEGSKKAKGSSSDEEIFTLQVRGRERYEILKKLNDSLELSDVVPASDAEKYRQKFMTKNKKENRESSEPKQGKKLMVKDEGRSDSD

[2] = target: T2, ΔNp63γ (Homo sapiens, UniProt Q9H3D4-6 1-393)
T2 sequence: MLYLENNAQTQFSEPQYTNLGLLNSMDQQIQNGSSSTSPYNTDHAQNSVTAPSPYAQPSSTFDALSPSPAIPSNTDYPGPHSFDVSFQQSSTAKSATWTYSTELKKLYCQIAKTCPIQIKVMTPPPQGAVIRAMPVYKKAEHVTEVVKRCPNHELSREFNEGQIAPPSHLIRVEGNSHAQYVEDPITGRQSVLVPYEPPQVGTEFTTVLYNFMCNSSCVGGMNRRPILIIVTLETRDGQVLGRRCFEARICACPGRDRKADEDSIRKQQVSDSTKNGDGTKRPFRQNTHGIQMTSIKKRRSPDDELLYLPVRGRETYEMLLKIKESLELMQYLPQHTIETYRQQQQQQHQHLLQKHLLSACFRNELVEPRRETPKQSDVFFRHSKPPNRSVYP

[3] = target: Hsp53 (Homo sapiens, UniProt P04637 1-393)
[4] = target: T3, Dmp53 (Drosophila melanogaster, UniProt Q9N6D8 1-385)
T3 sequence: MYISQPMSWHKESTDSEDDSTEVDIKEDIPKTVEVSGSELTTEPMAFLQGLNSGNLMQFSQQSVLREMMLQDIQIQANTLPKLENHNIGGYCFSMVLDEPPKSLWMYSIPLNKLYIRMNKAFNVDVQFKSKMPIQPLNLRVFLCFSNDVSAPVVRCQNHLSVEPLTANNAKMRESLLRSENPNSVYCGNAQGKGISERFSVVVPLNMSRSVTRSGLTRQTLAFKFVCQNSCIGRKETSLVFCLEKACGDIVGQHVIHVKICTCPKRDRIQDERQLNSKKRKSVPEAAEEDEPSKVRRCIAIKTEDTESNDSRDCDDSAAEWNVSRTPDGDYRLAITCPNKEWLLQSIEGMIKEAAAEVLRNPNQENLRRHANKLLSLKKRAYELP

[5] = target: T4, p73CT (Homo sapiens, UniProt O15350 104-383)
T4 sequence: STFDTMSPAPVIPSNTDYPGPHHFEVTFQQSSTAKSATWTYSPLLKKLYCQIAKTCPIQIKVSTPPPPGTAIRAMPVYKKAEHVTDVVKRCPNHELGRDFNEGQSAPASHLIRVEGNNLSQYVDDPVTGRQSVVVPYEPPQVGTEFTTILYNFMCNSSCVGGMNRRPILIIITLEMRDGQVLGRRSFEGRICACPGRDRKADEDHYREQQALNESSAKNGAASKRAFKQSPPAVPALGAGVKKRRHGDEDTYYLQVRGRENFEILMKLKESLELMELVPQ

[6] = target: T5, ΔNp63β (Homo sapiens, UniProt Q9H3D4-4 1-461)
T5 sequence: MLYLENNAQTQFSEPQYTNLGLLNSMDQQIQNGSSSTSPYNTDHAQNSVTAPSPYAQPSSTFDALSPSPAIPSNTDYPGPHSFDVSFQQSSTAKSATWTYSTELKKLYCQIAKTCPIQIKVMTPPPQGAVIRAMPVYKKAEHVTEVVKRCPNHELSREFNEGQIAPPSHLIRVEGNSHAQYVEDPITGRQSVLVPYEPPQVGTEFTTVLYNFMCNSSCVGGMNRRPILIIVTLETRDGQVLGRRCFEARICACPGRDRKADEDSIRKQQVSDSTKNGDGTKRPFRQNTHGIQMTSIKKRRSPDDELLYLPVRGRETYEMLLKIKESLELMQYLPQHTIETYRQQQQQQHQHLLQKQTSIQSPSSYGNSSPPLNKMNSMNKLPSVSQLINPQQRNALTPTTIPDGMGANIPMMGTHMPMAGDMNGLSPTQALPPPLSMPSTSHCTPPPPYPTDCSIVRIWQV

Chain of Hsp53 (P04637 whole entry): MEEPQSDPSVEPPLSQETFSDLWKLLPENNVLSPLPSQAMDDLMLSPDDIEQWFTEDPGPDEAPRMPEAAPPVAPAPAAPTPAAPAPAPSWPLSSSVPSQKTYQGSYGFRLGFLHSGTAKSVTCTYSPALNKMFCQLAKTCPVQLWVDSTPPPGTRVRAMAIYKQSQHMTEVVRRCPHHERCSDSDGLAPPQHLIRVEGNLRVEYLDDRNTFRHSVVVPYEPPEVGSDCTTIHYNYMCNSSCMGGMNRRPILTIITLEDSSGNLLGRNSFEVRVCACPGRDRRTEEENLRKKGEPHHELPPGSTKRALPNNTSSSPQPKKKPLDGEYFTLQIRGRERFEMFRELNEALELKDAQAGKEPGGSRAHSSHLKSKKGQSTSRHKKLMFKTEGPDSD

B1: Ref_Alexa488 (dsDNA)
DNA 1: GGACATGTCCGGACATGTCC
DNA 2: GGACATGTCCGGACATGTCC
- Kd [1]: -7.2 ± 0.03 log10(M)
- Kd [2]: -7.17 ± 0.02 log10(M)
- Kd [3]: -7.25 ± 0.03 log10(M)
- Kd [4]: -7.28 ± 0.03 log10(M)
- Kd [5]: -6.62 ± 0.04 log10(M)
- Kd [6]: -7.13 ± 0.04 log10(M)
